± gives the standard deviation of the averaged measurements.
System: Saccharomyces cerevisiae
Assay: protein stability index of tFT-peptide fusion (C-terminal peptide) (PSI (0-1 scale)); higher = more stable (slower turnover)
Details: temperature: 30 C
Procedure: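 MPS profiling in S. cerevisiae of the yeast C-terminome library: the last 12 aa of each annotated ORF are fused to the C-terminus of a sfGFP-mCherry timer, after a GGGS linker. Cells are FACS-sorted into 8 mCherry/sfGFP bins and deep-sequenced. PSI runs from 0 (unstable) to 1 (stable); wild type and das1Δ backgrounds, two technical replicates each.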

[1] = genetic background: das1 deletion

Row | Sequence | protein stability index [1] | protein stability index (genetic background: wild type)
1 | QIADDRPWCRME [YHC3 C-terminal 12 aa] | 0.705 ± 0.01 | 0.6831 ± 0.0064
2 | QIAFAWQNKPRL [PXP1 C-terminal 12 aa] | 0.815 ± 0.029 | 0.793 ± 0.045
3 | QKAQDVDVSMQD [RPN13 C-terminal 12 aa] | 0.68 ± 0.022 | 0.654 ± 0.026
4 | QKRKSRILSFIK [UBP9 C-terminal 12 aa] | 0.7208 ± 0.006 | 0.732 ± 0.047
5 | QLINGRKIIAGN [MOT2 C-terminal 12 aa] | 0.6718 ± 0.0014 | 0.7 ± 0.09
6 | QLVKLQLVELKL [LAM5 C-terminal 12 aa] | 0.6108 ± 0.0024 | 0.602 ± 0.026
7 | QMQQMAKQFGMG [SRP54 C-terminal 12 aa] | 0.6863 ± 0.0024 | 0.68513 ± 0.00031
8 | QMSAMTEKFGKL [YKL068W-A C-terminal 12 aa] | 0.726 ± 0.0095 | 0.693 ± 0.015
9 | QNEICQYDNTSP [YGR109W-B C-terminal 12 aa] | 0.7173 ± 0.0057 | 0.694 ± 0.012
10 | QNLLSAYRMNHK [AVO1 C-terminal 12 aa] | 0.70387 ± 0.00067 | 0.64 ± 0.021
11 | QQGGAGADQKTE [EMC10 C-terminal 12 aa] | 0.6815 ± 0.0066 | 0.656 ± 0.028
12 | QQQQQQQQQQQQ [PUB1 C-terminal 12 aa] | 0.71 ± 0.029 | 0.672 ± 0.052
13 | QVSLLLGFSSRS [MRX20 C-terminal 12 aa] | 0.698 ± 0.0012 | 0.7 ± 0.011
14 | QYDYELIQVQCS [PPN2 C-terminal 12 aa] | 0.431 ± 0.043 | 0.51 ± 0.032
15 | QYVLYKNEAGDK [AIM39 C-terminal 12 aa] | 0.689 ± 0.017 | 0.698 ± 0.019
16 | RAVTKYSSSTQA [HTB1 C-terminal 12 aa] | 0.7067 ± 0.0046 | 0.695 ± 0.034
17 | RDLFEIYQKMMQ [MUK1 C-terminal 12 aa] | 0.725 ± 0.02 | 0.706 ± 0.056
18 | RDNQIPDKEIGI [CAF16 C-terminal 12 aa] | 0.6731 ± 0.0026 | 0.704 ± 0.072
19 | REAKNLPKPSFL [EDC1 C-terminal 12 aa] | 0.70153 ± 0.00024 | 0.698 ± 0.0091
20 | RELLKSLVLSHR [RSM23 C-terminal 12 aa] | 0.703 ± 0.0085 | 0.683 ± 0.019
21 | RFLDYVRELESF [PDX1 C-terminal 12 aa] | 0.698 ± 0.014 | 0.70618 ± 0.0004

Row | Sequence | protein stability index [1] | protein stability index (genetic background: wild type)
22 | RGSEHYTKRKKI [UBS1 C-terminal 12 aa] | 0.687 ± 0.022 | 0.6822 ± 0.0035
23 | RIELSKYYNTNL [YPD1 C-terminal 12 aa] | 0.6986 ± 0.0043 | 0.716 ± 0.059
24 | RIIEYFEEYQCW [FRE6 C-terminal 12 aa] | 0.712 ± 0.014 | 0.731 ± 0.042
25 | RKEDDKRDTQEK [SOF1 C-terminal 12 aa] | 0.713 ± 0.024 | 0.67 ± 0.019
26 | RKELEKGKKNSK [YLR363W-A C-terminal 12 aa] | 0.694 ± 0.025 | 0.703 ± 0.054
27 | RKFVFNPPKPRK [CYT1 C-terminal 12 aa] | 0.691 ± 0.025 | 0.694 ± 0.056
28 | RKYPNQCGTISN [EXG1 C-terminal 12 aa] | 0.712 ± 0.011 | 0.674 ± 0.03
29 | RLQQVRKNPYPF [OPI7 C-terminal 12 aa] | 0.7357 ± 0.0072 | 0.712 ± 0.032
30 | RLYDRINGKPHD [MRP10 C-terminal 12 aa] | 0.671 ± 0.014 | 0.668 ± 0.021
31 | RNVYSTKTRCIE [TDA10 C-terminal 12 aa] | 0.681 ± 0.017 | 0.699 ± 0.023
32 | RQDNNHNGSSNG [MET32 C-terminal 12 aa] | 0.6936 ± 0.0016 | 0.706 ± 0.025
33 | RQFKEILTVKEE [RRP40 C-terminal 12 aa] | 0.6732 ± 0.0037 | 0.687 ± 0.013
34 | RQNDKGAIKKSK [YEA4 C-terminal 12 aa] | 0.676 ± 0.019 | 0.719 ± 0.049
35 | RRAAESGKLKME [YNL108C C-terminal 12 aa] | 0.693 ± 0.029 | 0.698 ± 0.067
36 | RRDYWLSKGQAL [TRF5 C-terminal 12 aa] | 0.7173 ± 0.0032 | 0.725 ± 0.032
37 | RREATRISDLLK [FMS1 C-terminal 12 aa] | 0.695 ± 0.014 | 0.703 ± 0.06
38 | RRRASKNAFRGM [ENP2 C-terminal 12 aa] | 0.696 ± 0.02 | 0.692 ± 0.014
39 | RSRKWKRRLFHL [PEX32 C-terminal 12 aa] | 0.825 ± 0.038 | 0.6 ± 0.12
40 | RSRSINGDWRKD [PAN5 C-terminal 12 aa] | 0.6835 ± 0.0046 | 0.6967 ± 0.0028
41 | RSTFLMHGRLAT [MAK3 C-terminal 12 aa] | 0.707 ± 0.02 | 0.702 ± 0.019
42 | RVAVIEDDEDED [LEO1 C-terminal 12 aa] | 0.688 ± 0.0068 | 0.692 ± 0.021

Row | Sequence | protein stability index [1] | protein stability index (genetic background: wild type)
43 | RVGQTNSPSDSQ [DFM1 C-terminal 12 aa] | 0.706 ± 0.0087 | 0.695 ± 0.049
44 | RVKILHRDDTKK [UPF3 C-terminal 12 aa] | 0.707 ± 0.024 | 0.732 ± 0.093
45 | RWHIQRITSPLS [STP22 C-terminal 12 aa] | 0.74 ± 0.048 | 0.719 ± 0.028
46 | RYKILDLIISKL [UTP6 C-terminal 12 aa] | 0.789 ± 0.042 | 0.683 ± 0.04
47 | RYVIFQSCGLIL [MRX8 C-terminal 12 aa] | 0.657 ± 0.031 | 0.683 ± 0.012
48 | SAQDSDIDLQDA [MCM7 C-terminal 12 aa] | 0.695 ± 0.0088 | 0.682 ± 0.031
49 | SASSTPSSTTMS [SPT20 C-terminal 12 aa] | 0.682 ± 0.0019 | 0.681 ± 0.011
50 | SCRTTPQVRARA [YLR279W C-terminal 12 aa] | 0.6944 ± 0.0046 | 0.6946 ± 0.0043
51 | SDENIQPELRGQ [ABF1 C-terminal 12 aa] | 0.675 ± 0.018 | 0.723 ± 0.047
52 | SEETKKSCCSGK [CUP1-1 C-terminal 12 aa] | 0.695 ± 0.01 | 0.757 ± 0.048
53 | SEINDDFHQWAQ [DEP1 C-terminal 12 aa] | 0.727 ± 0.021 | 0.698 ± 0.0071
54 | SEIVDISQLPPG [ILV6 C-terminal 12 aa] | 0.6812 ± 0.0022 | 0.7033 ± 0.0062
55 | SFDVELVGLKFV [YHL019W-A C-terminal 12 aa] | 0.7172 ± 0.005 | 0.695 ± 0.029
56 | SFFCRSSSKSSK [YSC83 C-terminal 12 aa] | 0.7232 ± 0.0053 | 0.724 ± 0.0074
57 | SGFFSSLKTMFN [PAR32 C-terminal 12 aa] | 0.719 ± 0.027 | 0.726 ± 0.058
58 | SGNNLGICFYKE [NUP170 C-terminal 12 aa] | 0.6733 ± 0.005 | 0.677 ± 0.019
59 | SHYHMWPIKRII [YMR082C C-terminal 12 aa] | 0.6853 ± 0.0064 | 0.567 ± 0.011
60 | SIDELETEISTW [BCP1 C-terminal 12 aa] | 0.718 ± 0.015 | 0.6932 ± 0.0068
61 | SKEFVGSVYLNF [TRL1 C-terminal 12 aa] | 0.679 ± 0.009 | 0.678 ± 0.03
62 | SKILFLCQINIS [YNR042W C-terminal 12 aa] | 0.312 ± 0.03 | 0.313 ± 0.015
63 | SKIPSSLYIYHM [YGL042C C-terminal 12 aa] | 0.7073 ± 0.0067 | 0.619 ± 0.04

Row | Sequence | protein stability index [1] | protein stability index (genetic background: wild type)
64 | SKLNAVHTANEK [SEC8 C-terminal 12 aa] | 0.712 ± 0.016 | 0.686 ± 0.022
65 | SLENVAMLVYKK [TRM13 C-terminal 12 aa] | 0.698 ± 0.048 | 0.66 ± 0.026
66 | SLKPSEKKLYYL [NTH2 C-terminal 12 aa] | 0.721 ± 0.0073 | 0.663 ± 0.02
67 | SLLGIQKSVRNL [MDM20 C-terminal 12 aa] | 0.691 ± 0.056 | 0.6654 ± 0.006
68 | SLNQPELINFKS [IZH4 C-terminal 12 aa] | 0.714 ± 0.017 | 0.71 ± 0.046
69 | SLQKIDATYIRG [SDS22 C-terminal 12 aa] | 0.702 ± 0.017 | 0.687 ± 0.017
70 | SLSSLSNQRCTT [YCR023C C-terminal 12 aa] | 0.709 ± 0.011 | 0.68 ± 0.052
71 | SMGNYYKSFFSM [OMA1 C-terminal 12 aa] | 0.704 ± 0.02 | 0.6294 ± 0.0025
72 | SNHECSQINLLE [YCL021W C-terminal 12 aa] | 0.695 ± 0.018 | 0.688 ± 0.017
73 | SPTRKRPPPRLS [INN1 C-terminal 12 aa] | 0.726 ± 0.0049 | 0.722 ± 0.0076
74 | SQDDSILSSDPF [NIS1 C-terminal 12 aa] | 0.715 ± 0.015 | 0.666 ± 0.014
75 | SQFVNDPFWANI [HIS2 C-terminal 12 aa] | 0.757 ± 0.031 | 0.756 ± 0.04
76 | SQIRTPLVMLLM [YOR318C C-terminal 12 aa] | 0.651 ± 0.025 | 0.454 ± 0.0056
77 | SQPDYKYLFDTQ [YRM1 C-terminal 12 aa] | 0.71 ± 0.027 | 0.623 ± 0.025
78 | SRIIIKAARGII [YOR082C C-terminal 12 aa] | 0.704 ± 0.042 | 0.678 ± 0.019
79 | SRRFYRKIDHLA [YLR400W C-terminal 12 aa] | 0.699 ± 0.02 | 0.507 ± 0.018
80 | SRVVLSQGDSDD [TOF1 C-terminal 12 aa] | 0.68424 ± 0.00057 | 0.662 ± 0.026
81 | SSSSLYTESPIR [IGO1 C-terminal 12 aa] | 0.7011 ± 0.0054 | 0.717 ± 0.066
82 | SSVVSIPLREIL [YNR048W C-terminal 12 aa] | 0.712 ± 0.016 | 0.711 ± 0.07

From the supplement of paper PMC10724198
